Source: article doi:10.1101/464131, “Increased association between Epstein-Barr virus EBNA2 from type 2 strains and the transcriptional repressor BS69 restricts B cell growth” (bioRxiv, 2018)

B3: BS69 CC-MYND domain (amino acids 480-602) (domain or fragment, human, UniProt Q15326-1 480-602, looked up)
chain: DRMKSDHKRETERVVREALEKLRSEMEEEKRQAVNKAVANMQGEMDRKCKQVKEKCKEEFVEEIKKLATQHKQLISQTKKKQWCYNCEEEAMYHCCWNTSYCSIKCQQEHWHAEHKRTCRRKR
notes: BS69 (ZMYND11), human, C-terminal region with the coiled-coil and MYND domains, amino acids 480-602; canonical isoform 1 of 602 amino acids; Dimer by SEC-MALS; Amplified from pCI-BS69 and cloned into pET49b+; also called ZMYND11; source: E. coli Rosetta 2 (DE3) pLysS, purified (cobalt resin, 3C protease cleavage, Superdex 75); not shown: GST, N-terminal, cleaved; His6, N-terminal, cleaved

Tests used:
[1] = target: B3; test: ITC; EBNA2 peptide (1 mM) titrated into BS69CC-MYND (0.1 mM) in the cell, 13 injections, 25°C, 20 mM Tris-HCl, 100 mM NaCl, 1 mM TCEP, pH 7.5; one-site model with n fixed to 1; conditions: both partners purified
[2] = target: B3; test: ITC; EBNA2 polypeptide titrated into BS69CC-MYND (0.1 mM) in the cell, 19 x 2.0 μl injections, 25°C, 20 mM Tris-HCl, 100 mM NaCl, 1 mM TCEP, pH 7.5; one set of sites model; n calculated for monomeric proteins; conditions: both partners purified
[3] = target: the molecule itself; test: SEC-MALS; individual proteins, 5 mg/ml, Shodex KW403-4F column, 25°C, 20 mM Tris-HCl, 100 mM NaCl, 1 mM TCEP, pH 7.5
[4] = target: T1, BS69 CC-MYND domain (amino acids 480-602) (human, UniProt Q15326-1 480-602); test: ITC
T1 chain: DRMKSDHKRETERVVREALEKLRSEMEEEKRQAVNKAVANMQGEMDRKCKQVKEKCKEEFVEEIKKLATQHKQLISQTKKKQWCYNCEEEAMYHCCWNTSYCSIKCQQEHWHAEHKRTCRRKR

[5] = target: B3; test: ITC; EBNA2 polypeptide titrated into BS69CC-MYND (0.1 mM) in the cell, 29 x 1.3 μl injections, 25°C, 20 mM Tris-HCl, 100 mM NaCl, 1 mM TCEP, pH 7.5; two sets of sites (two event) model; conditions: both partners purified

B1: type 2 EBNA2 motif 3 peptide T2 EBNA2_(412-422) (peptide)
peptide: YPPTLEPAELD
notes: source: synthetic peptide (Peptide Synthetics)
- Kd [1]: 219000 nM

B2: type 2 EBNA2 polypeptide T2 EBNA2_(348-412) (domain or fragment)
chain: SMPQLSPVVSLHQGQGPENSPTPGPSTAGPVCRVTPSATPDISPIHEPESSDSEEPPFLFPSDWY
notes: pET47b+ construct; also called type 2 EBNA2_(348-412); source: E. coli Rosetta 2 (DE3) pLysS, purified (cobalt resin, 3C protease cleavage, Superdex 75); not shown: His6, N-terminal, cleaved
- Kd [2]: 1210 nM
- stoichiometry N [2]: 0.33 molar ratio EBNA2 : BS69CC-MYND monomer

Binder: B3
- stoichiometry N [3]: 2

B4: type 1 EBNA2 polypeptide T1 EBNA2_(381-455) (domain or fragment)
chain: SMPELSPVLGLHQGQGAGDSPTPGPSNAAPVCRNSHTATPNVSPIHEPESHNSPEAPILFPDDWYPPSIDPADLD
- Kd [4]: 730 nM

B5: type 2 EBNA2 polypeptide T2 EBNA2_(348-422) (domain or fragment)
chain: SMPQLSPVVSLHQGQGPENSPTPGPSTAGPVCRVTPSATPDISPIHEPESSDSEEPPFLFPSDWYPPTLEPAELD
notes: pET47b+ construct; Monomer by SEC-MALS; also called type 2 EBNA2_(348-422); source: E. coli Rosetta 2 (DE3) pLysS, purified (cobalt resin, 3C protease cleavage, Superdex 75); not shown: His6, N-terminal, cleaved
- Kd [4]: 1010 nM
- dH (second binding event) [5]: -1.59 kcal/mol
- stoichiometry N [2]: 0.15 molar ratio EBNA2 : BS69CC-MYND monomer

B6: T2 EBNA2_(348-422) motif 3 mt (domain or fragment)
chain: SMPQLSPVVSLHQGQGPENSPTPGPSTAGPVCRVTPSATPDISPIHEPESSDSEEPPFLFPSDWYPATAEAAELD
notes: EBNA2 of type 2 EBV (AG876), amino acids 348-422, motif 3 (PTLEP 414-418) mutated to ATAEA; source: E. coli Rosetta 2 (DE3) pLysS, purified (cobalt resin, 3C protease cleavage, Superdex 75); not shown: His6, N-terminal, cleaved
- stoichiometry N [2]: 0.3 molar ratio EBNA2 : BS69CC-MYND monomer

B7: T2 EBNA2_(348-422) SD mutant (domain or fragment)
chain: SMPQLSPVVSLHQGQGPENSPTPGPSTAGPVCRVTPSATPDISPIHEPESSDSEEPPFLFPDDWYPPTLEPAELD
notes: EBNA2 of type 2 EBV (AG876), amino acids 348-422 with serine 409 changed to aspartate (the position that is 442 in type 1 EBNA2); text and methods print 409; source: E. coli Rosetta 2 (DE3) pLysS, purified (cobalt resin, 3C protease cleavage, Superdex 75); not shown: His6, N-terminal, cleaved
- dH (second binding event) [5]: -7.65 kcal/mol

B8: EBNA2_(348-422) SD + m3 mt (domain or fragment)
chain: SMPQLSPVVSLHQGQGPENSPTPGPSTAGPVCRVTPSATPDISPIHEPESSDSEEPPFLFPDDWYPATAEAAELD
notes: EBNA2 of type 2 EBV (AG876), amino acids 348-422 with S409D and motif 3 (PTLEP 414-418) mutated to ATAEA; also called T2 EBNA2_(348-422) SD + motif 3 mt; double mutant type 2 EBNA2 polypeptide; source: E. coli Rosetta 2 (DE3) pLysS, purified (cobalt resin, 3C protease cleavage, Superdex 75); not shown: His6, N-terminal, cleaved
- dH (second binding event) [5]: -9.62 kcal/mol
- fold reduction of the affinity of the second binding event (KD2) against m11 [5]: ~2 fold

B9: type 2 EBNA2 motif 2 peptide (402-412) (peptide)
peptide: EPPFLFPSDWY
notes: as for B1
- Kd [1]: 176000 nM
